Measurements reported in US20230093211A1.

Key:
Assay in all cases: SPR (Biacore T200), p75NTR-Fc captured on Protein A, neurotrophin injected
[1] = target: T1, BDNF
T1 sequence (P23560 19-247, species assumed, looked up): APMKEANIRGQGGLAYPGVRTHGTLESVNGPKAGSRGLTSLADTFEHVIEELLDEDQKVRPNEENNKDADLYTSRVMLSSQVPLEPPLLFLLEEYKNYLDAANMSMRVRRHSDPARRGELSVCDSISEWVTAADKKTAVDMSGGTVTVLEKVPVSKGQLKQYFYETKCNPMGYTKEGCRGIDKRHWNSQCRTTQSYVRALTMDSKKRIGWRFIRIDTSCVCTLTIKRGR

[2] = target: NT-3
[3] = target: NGF
[4] = target: T2, NT-4
T2 sequence (P34130 81-210, species assumed, looked up): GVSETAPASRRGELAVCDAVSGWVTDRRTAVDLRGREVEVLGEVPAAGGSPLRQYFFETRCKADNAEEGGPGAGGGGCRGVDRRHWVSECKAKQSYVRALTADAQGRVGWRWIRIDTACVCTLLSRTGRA

Chain of p75NTR-Fc (Fc fusion) (chain): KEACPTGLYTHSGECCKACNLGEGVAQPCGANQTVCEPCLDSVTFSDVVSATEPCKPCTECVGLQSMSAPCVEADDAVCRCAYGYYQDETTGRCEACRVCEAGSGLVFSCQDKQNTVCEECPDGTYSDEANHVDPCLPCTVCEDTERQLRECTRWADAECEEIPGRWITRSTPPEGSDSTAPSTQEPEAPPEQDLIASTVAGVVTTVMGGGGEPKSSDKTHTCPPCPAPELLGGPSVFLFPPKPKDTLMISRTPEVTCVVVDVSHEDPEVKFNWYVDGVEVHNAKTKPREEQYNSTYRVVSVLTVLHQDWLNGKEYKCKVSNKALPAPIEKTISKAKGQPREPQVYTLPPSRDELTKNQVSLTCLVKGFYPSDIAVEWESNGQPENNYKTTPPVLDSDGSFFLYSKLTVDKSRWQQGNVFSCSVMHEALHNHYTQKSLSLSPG
Chain of NGF (P01138 122-241): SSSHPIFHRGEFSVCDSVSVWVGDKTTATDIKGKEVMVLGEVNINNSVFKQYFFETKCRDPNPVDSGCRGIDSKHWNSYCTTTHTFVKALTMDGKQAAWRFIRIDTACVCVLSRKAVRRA

Kd [1]: 41.8 pM | Kd [2]: 14.2 pM | Kd [3]: 554 pM | Kd [4]: 181 pM
Substance: p75NTR-Fc (Fc fusion)
